Measurements as given in the supplement of paper PMC9112550, “Optimization of the antimicrobial peptide Bac7 by deep mutational scanning” (BMC Biology, 2022).

test system: Escherichia coli TOP10; assay: shrunken log2 fold change of peptide-encoding DNA abundance (4.5 h post-induction vs induction); higher = less antimicrobial activity (less host growth inhibition); conditions: time post-induction: 4.5 h; library: site-saturation at positions 5, 18, 19, 20
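Further: peptides expressed intracellularly from a pBAD plasmid library in pooled LB shake-flask culture, induced with 0.3% L-arabinose, DNA abundance read by NGS, three biological replicates, DESeq2 with apeglm shrinkage.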

Point of comparison: RRIRMRPPRLPRPRPRPLCFPRP, “shrunken log2 fold change” value 0.562. Against it:
- RRIRARPPRLPRPRPRPKWGPRP — within 0.2 log units, 0.418
- RRIRRRPPRLPRPRPRPMPEPRP — lower, 0.124
- RRIRKRPPRLPRPRPRPHPQPRP — lower, 0.223
- RRIRGRPPRLPRPRPRPHVMPRP — lower, 0.0731
- RRIRPRPPRLPRPRPRPQQFPRP — lower, -0.049
- RRIRNRPPRLPRPRPRPTGEPRP — within 0.2 log units, 0.394
- RRIRFRPPRLPRPRPRPWYPPRP — lower, -0.321
- RRIRPRPPRLPRPRPRPNQDPRP — lower, -0.167
- RRIRARPPRLPRPRPRPMVNPRP — lower, 0.309
- RRIRNRPPRLPRPRPRPAFDPRP — lower, 0.235
- RRIRSRPPRLPRPRPRPLRPPRP — higher, 0.953
- RRIRGRPPRLPRPRPRPGEGPRP — higher, 1.15
- RRIRYRPPRLPRPRPRPCGWPRP — lower, -0.00979
- RRIRDRPPRLPRPRPRPTYSPRP — lower, -0.757
- RRIRHRPPRLPRPRPRPPYHPRP — lower, -0.495
- RRIRMRPPRLPRPRPRPTGHPRP — within 0.2 log units, 0.63
- RRIRSRPPRLPRPRPRPYDHPRP — lower, -0.795
- RRIRYRPPRLPRPRPRPPGPPRP — within 0.2 log units, 0.455
- RRIRKRPPRLPRPRPRPNWFPRP — lower, 0.188
- RRIRSRPPRLPRPRPRPFKDPRP — lower, -0.11
- RRIRMRPPRLPRPRPRPSAAPRP — higher, 2.7
- RRIRIRPPRLPRPRPRPWRPPRP — lower, 0.145
- RRIRYRPPRLPRPRPRPQPAPRP — lower, 0.0964
- RRIRARPPRLPRPRPRPGTDPRP — within 0.2 log units, 0.565
- RRIRERPPRLPRPRPRPCNYPRP — lower, -0.746
- RRIRNRPPRLPRPRPRPEENPRP — lower, -0.00776
- RRIRQRPPRLPRPRPRPLTRPRP — within 0.2 log units, 0.424
- RRIRSRPPRLPRPRPRPHMSPRP — lower, -0.223
- RRIRQRPPRLPRPRPRPHYWPRP — lower, 0.0403
- RRIRKRPPRLPRPRPRPQVKPRP — lower, 0.0274
- RRIRRRPPRLPRPRPRPLQEPRP — lower, 0.019
- RRIRWRPPRLPRPRPRPKNSPRP — lower, 0.318
- RRIRDRPPRLPRPRPRPHRCPRP — lower, -0.00141
- RRIRHRPPRLPRPRPRPATYPRP — lower, -0.501
- RRIRVRPPRLPRPRPRPVWDPRP — lower, 0.142
- RRIRQRPPRLPRPRPRPKHGPRP — lower, 0.00489
- RRIRYRPPRLPRPRPRPGSWPRP — lower, 0.0212
- RRIRERPPRLPRPRPRPKMGPRP — lower, 0.00452
- RRIRPRPPRLPRPRPRPDIFPRP — lower, 0.0196
- RRIRKRPPRLPRPRPRPLRGPRP — higher, 0.873
- RRIRHRPPRLPRPRPRPMMFPRP — lower, -0.18
- RRIRWRPPRLPRPRPRPDTNPRP — lower, -0.144
- RRIRCRPPRLPRPRPRPWVCPRP — lower, 0.0107
- RRIRCRPPRLPRPRPRPRWQPRP — lower, 0.0261
- RRIRPRPPRLPRPRPRPKEHPRP — lower, -0.202
- RRIRWRPPRLPRPRPRPVKHPRP — lower, 0.0838
- RRIRVRPPRLPRPRPRPWTDPRP — lower, -0.0083
- RRIRYRPPRLPRPRPRPDKGPRP — lower, -0.0723
- RRIRDRPPRLPRPRPRPINDPRP — lower, 0.0753
- RRIRERPPRLPRPRPRPHIFPRP — lower, 0.116
- RRIRTRPPRLPRPRPRPTNNPRP — lower, -0.618
- RRIRVRPPRLPRPRPRPERKPRP — lower, 0.111
- RRIRQRPPRLPRPRPRPEYIPRP — lower, -0.00306
- RRIRGRPPRLPRPRPRPAMPPRP — within 0.2 log units, 0.492
- RRIRYRPPRLPRPRPRPCAMPRP — lower, 0.0865
- RRIRDRPPRLPRPRPRPNEFPRP — lower, -0.0102
- RRIRVRPPRLPRPRPRPWILPRP — lower, 0.000714
- RRIRIRPPRLPRPRPRPALKPRP — lower, -0.0298
- RRIRTRPPRLPRPRPRPGVSPRP — lower, -0.221
- RRIRFRPPRLPRPRPRPRLYPRP — lower, -0.014
- RRIRLRPPRLPRPRPRPFYDPRP — lower, 0.00534
- RRIRQRPPRLPRPRPRPHRPPRP — lower, 0.0757
- RRIRWRPPRLPRPRPRPKSAPRP — within 0.2 log units, 0.606
- RRIRKRPPRLPRPRPRPGEEPRP — lower, 0.108
- RRIRTRPPRLPRPRPRPIQAPRP — lower, 0.232
- RRIRQRPPRLPRPRPRPMEVPRP — lower, -0.0855
- RRIRMRPPRLPRPRPRPCVIPRP — lower, -0.04
- RRIRLRPPRLPRPRPRPLLVPRP — lower, -0.12
- RRIRHRPPRLPRPRPRPGYNPRP — lower, -0.418
- RRIRTRPPRLPRPRPRPKSLPRP — lower, -0.291
- RRIRLRPPRLPRPRPRPFCQPRP — lower, -0.078
- RRIRVRPPRLPRPRPRPWRTPRP — lower, 0.0312
- RRIRARPPRLPRPRPRPENWPRP — within 0.2 log units, 0.569
- RRIRIRPPRLPRPRPRPVWVPRP — lower, 0.107
- RRIRGRPPRLPRPRPRPCANPRP — lower, 0.0504
- RRIRYRPPRLPRPRPRPFNIPRP — lower, -0.973
- RRIRGRPPRLPRPRPRPLCNPRP — within 0.2 log units, 0.388
- RRIRGRPPRLPRPRPRPLCGPRP — higher, 0.78
- RRIRLRPPRLPRPRPRPFWDPRP — lower, 0.184
- RRIRLRPPRLPRPRPRPWQTPRP — lower, -0.0245
- RRIRQRPPRLPRPRPRPRCCPRP — lower, 0.061
- RRIRMRPPRLPRPRPRPPGEPRP — higher, 1.47
- RRIRCRPPRLPRPRPRPCVMPRP — lower, -0.0643
- RRIRYRPPRLPRPRPRPDLCPRP — lower, 0.0404
- RRIRMRPPRLPRPRPRPPTGPRP — higher, 0.858
- RRIRIRPPRLPRPRPRPNAVPRP — lower, -0.266
- RRIRARPPRLPRPRPRPKPVPRP — higher, 0.882
- RRIRSRPPRLPRPRPRPAYWPRP — lower, 0.259
- RRIRMRPPRLPRPRPRPIHWPRP — lower, -0.257
- RRIRCRPPRLPRPRPRPFHTPRP — lower, -0.0266
- RRIRPRPPRLPRPRPRPHLDPRP — lower, 0.158
- RRIRNRPPRLPRPRPRPFSEPRP — lower, -0.0347
- RRIRWRPPRLPRPRPRPKELPRP — within 0.2 log units, 0.501
- RRIRPRPPRLPRPRPRPRMWPRP — within 0.2 log units, 0.413
- RRIRLRPPRLPRPRPRPIRCPRP — lower, -0.0375
- RRIRWRPPRLPRPRPRPHTYPRP — lower, -0.578
- RRIRIRPPRLPRPRPRPHGRPRP — lower, -0.0215
- RRIRYRPPRLPRPRPRPISTPRP — lower, -0.0632
- RRIRWRPPRLPRPRPRPAKAPRP — within 0.2 log units, 0.747
- RRIRGRPPRLPRPRPRPVAFPRP — within 0.2 log units, 0.722
- RRIRFRPPRLPRPRPRPKGGPRP — lower, 0.00425
- RRIRRRPPRLPRPRPRPYNDPRP — lower, -0.176
- RRIRTRPPRLPRPRPRPVHQPRP — lower, -0.022
- RRIRSRPPRLPRPRPRPAQAPRP — lower, 0.15
- RRIRSRPPRLPRPRPRPHTTPRP — lower, -0.0736
- RRIRIRPPRLPRPRPRPYVDPRP — lower, -0.0276
- RRIRERPPRLPRPRPRPQGSPRP — lower, -0.107
- RRIRTRPPRLPRPRPRPVEIPRP — lower, -0.2
